Data: paper PMC2629542 (The Journal of biological chemistry, 2006)

Target: Dr hemagglutinin (DraE) adhesin, Dr fimbriae (E. coli)
Experiment: SPR

B1: N-domain of CEACAM6 (domain or fragment)
chain: KLTIESTPFNVAEGKEVLLLAHNLPQNRIGYSWYKGERVDGNSLIVGYVIGTQQATPGPAYSGRETIYPNASLLIQNVTQNDTGFYTLQVIKSDLVNEEATGQFHVYPEL
B1 showed a Kd of 30.1 µM.
